Assay results reported in US20210015937A1.

Target: human LAG-3 expressed on cells (human) (UniProt P18627)
Assay: cell-based or functional assay

Chain of human LAG-3 expressed on cells (human) (P18627 23-525 limits assumed): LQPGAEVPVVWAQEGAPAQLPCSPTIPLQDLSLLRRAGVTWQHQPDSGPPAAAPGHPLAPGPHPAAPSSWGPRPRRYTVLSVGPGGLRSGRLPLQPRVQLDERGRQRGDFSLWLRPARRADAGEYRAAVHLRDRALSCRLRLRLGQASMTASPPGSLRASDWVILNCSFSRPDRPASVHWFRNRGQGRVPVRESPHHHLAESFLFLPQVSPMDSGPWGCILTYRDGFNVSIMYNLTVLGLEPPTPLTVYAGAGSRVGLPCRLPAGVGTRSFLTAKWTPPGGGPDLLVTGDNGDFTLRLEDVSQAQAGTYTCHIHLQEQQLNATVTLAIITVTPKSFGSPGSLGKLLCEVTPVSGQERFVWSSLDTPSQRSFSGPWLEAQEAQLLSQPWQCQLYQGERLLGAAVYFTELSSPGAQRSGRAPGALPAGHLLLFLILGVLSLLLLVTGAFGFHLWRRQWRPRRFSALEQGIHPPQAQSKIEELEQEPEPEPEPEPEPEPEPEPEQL

Substance | EC50 (M), NFAT-Luciferase Reporter Gene assay (LAG-3:MHCII) [M]
Mouse anti-LAG3 antibody clone 17B4 | 3.2e-08
Human anti-LAG3 antibody (Relatlimab analogue) | 4e-09
